Reference: the supplement of paper PMC10065799, “High-throughput profiling of sequence recognition by tyrosine kinases and SH2 domains using bacterial peptide display” (eLife, 2023)

Each sequence was assayed against Jak2 (UniProt O60674) (assay: phosphorylation enrichment, bacterial display (enrichment ratio); higher = better substrate or ligand; peptides without Tyr show the background).
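Note: 11-residue human phosphosite peptides and single-mutation variants displayed on the E. coli surface, counted by deep sequencing, each peptide's frequency after selection divided by its frequency in the unselected input library; frequency after pTyr selection over input frequency; kinase dosed for 20-30% of maximal phosphorylation in three min.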

Jak2, sequence (O60674 whole entry, looked up): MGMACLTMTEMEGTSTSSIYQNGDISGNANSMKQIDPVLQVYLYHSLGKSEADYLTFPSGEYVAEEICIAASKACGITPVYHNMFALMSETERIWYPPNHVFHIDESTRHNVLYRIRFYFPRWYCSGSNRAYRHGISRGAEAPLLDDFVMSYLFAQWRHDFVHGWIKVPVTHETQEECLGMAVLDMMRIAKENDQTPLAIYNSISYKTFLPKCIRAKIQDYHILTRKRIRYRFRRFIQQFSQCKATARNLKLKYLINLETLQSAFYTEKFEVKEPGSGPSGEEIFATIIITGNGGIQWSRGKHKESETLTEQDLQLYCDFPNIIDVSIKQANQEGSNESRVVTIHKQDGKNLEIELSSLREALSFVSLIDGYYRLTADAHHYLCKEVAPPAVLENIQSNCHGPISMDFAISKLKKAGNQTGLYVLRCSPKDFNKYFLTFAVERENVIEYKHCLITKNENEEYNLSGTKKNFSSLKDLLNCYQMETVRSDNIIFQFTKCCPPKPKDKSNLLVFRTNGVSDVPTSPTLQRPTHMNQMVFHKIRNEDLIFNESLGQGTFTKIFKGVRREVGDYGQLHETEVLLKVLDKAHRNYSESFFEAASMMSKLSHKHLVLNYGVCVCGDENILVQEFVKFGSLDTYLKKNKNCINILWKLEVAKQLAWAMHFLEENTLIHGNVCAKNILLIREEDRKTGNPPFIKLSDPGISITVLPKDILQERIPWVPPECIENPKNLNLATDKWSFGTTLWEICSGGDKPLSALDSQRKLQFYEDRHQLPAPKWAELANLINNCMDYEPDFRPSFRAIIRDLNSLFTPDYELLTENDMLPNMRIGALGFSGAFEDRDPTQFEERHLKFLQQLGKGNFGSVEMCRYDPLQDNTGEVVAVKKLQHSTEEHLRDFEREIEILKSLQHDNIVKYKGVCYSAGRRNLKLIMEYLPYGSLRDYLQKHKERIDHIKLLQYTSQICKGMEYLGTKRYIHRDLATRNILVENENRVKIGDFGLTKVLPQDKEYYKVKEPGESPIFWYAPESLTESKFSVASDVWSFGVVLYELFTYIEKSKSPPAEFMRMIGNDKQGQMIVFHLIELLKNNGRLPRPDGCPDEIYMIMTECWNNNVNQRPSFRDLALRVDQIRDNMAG

Row | Sequence | phosphorylation enrichment
1 | HDRGNYVQLNM [RECQL4_Y353_R355Q] | 0.55
2 | QGIIIYRAAYF [SLC25A4_Y187] | 1.13
3 | LKDEDYLKDTV [HAUS3_Y582_I586T] | 2.34
4 | EGLKVYVNGTL [ADGRD1_Y183] | 1.24
5 | PLRADYLIARV [HLCS_Y635] | 0.747
6 | DRLASYLDKAR [KRT14_Y129_V133A] | 0.627
7 | GRLPEYNTPIA [CCDC151_Y542_R545P] | 0.662
8 | SSQILYKLEQS [THADA_Y701_V699I] | 0.7
9 | EEKSCYILHSS [PATJ_Y783_E780K] | 0.744
10 | LEDEVCAQKMK [TPM2_Y261_Y261C] | 1.44
11 | TFLRTYTDTMQ [TSPAN7_Y124_A127T] | 0.687
12 | SKKSTYRALLD [GANC_Y43_Q44R] | 0.533
13 | QLHREYCLSPR [HJURP_Y445] | 0.877
14 | TLNVRYESVQA [CEACAM7_Y236] | 0.755
15 | SNKLHYQLEQE [PDPR_Y110_Y109H] | 0.699
16 | GREAEYSEKHG [EPHB4_Y574_D576E] | 0.59
17 | AEPTGYSAELS [EZR_Y499] | 1.08

Row | Sequence | phosphorylation enrichment
18 | VHSGTYQVTVR [MYBPC3_Y1043] | 0.48
19 | PYAEPYADYGG [APBA1_Y187_S184A] | 2.47
20 | ARTNEYKIIRS [INA_Y87_T92S] | 0.454
21 | FFHCTYKQRMI [CLEC12A_Y242_K244Q_YF] | 1.02
22 | HVIKFYGACSQ [RET_Y791_L790F] | 1.3
23 | ANNPLYKEATS [ITGB3_Y773] | 0.406
24 | KLKNAYEESLE [MYH7_Y1488] | 0.908
25 | EFENSYIFDIN [GAB1_Y83] | 1.16
26 | LQIPMYEVQWK [KIT_Y553_K550I] | 0.721
27 | PELINYHQHYS [BTK_Y361_N365Y] | 0.577
28 | WQQQSYLASGI [CTNNB1_Y30_D32A] | 0.638
29 | CKLCQYYLDHL [ATRX_Y1849_Y1847C] | 0.806
30 | HKLSYCEYDFE [BTK_Y40_Y40C] | 1.29
31 | NELTYYCYKKD [CD59_Y87_C89Y] | 2
32 | PVGDVYKKKGL [NMNAT1_Y55_A54V] | 0.405
33 | DAANNYARGHF [TUBA3E_Y103_S101N_YF] | 0.391

Each sequence was assayed against Fyn (UniProt P06241) in the same assay as above.
Fyn, sequence (P06241 whole entry, looked up): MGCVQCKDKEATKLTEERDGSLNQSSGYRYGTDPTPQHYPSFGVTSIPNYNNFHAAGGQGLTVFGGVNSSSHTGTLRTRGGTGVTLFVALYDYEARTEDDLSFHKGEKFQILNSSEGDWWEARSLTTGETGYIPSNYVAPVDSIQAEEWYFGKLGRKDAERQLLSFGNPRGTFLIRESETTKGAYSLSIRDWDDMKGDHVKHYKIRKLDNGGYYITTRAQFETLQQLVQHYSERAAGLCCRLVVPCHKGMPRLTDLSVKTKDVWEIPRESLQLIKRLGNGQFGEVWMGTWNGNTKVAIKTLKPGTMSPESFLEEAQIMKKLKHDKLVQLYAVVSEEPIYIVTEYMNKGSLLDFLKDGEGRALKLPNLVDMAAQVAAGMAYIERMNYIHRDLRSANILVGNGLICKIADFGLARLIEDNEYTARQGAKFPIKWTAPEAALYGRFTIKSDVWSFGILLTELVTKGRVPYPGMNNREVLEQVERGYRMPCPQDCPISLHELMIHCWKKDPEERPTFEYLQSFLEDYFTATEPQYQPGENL

Row | Sequence | phosphorylation enrichment
34 | HDRGNYVQLNM [RECQL4_Y353_R355Q] | 0.493
35 | QGIIIYRAAYF [SLC25A4_Y187] | 0.574
36 | LKDEDYLKDTV [HAUS3_Y582_I586T] | 1.99
37 | EGLKVYVNGTL [ADGRD1_Y183] | 0.497
38 | PLRADYLIARV [HLCS_Y635] | 0.319
39 | DRLASYLDKAR [KRT14_Y129_V133A] | 0.373
40 | GRLPEYNTPIA [CCDC151_Y542_R545P] | 0.442
41 | SSQILYKLEQS [THADA_Y701_V699I] | 0.388
42 | EEKSCYILHSS [PATJ_Y783_E780K] | 0.753
43 | LEDEVCAQKMK [TPM2_Y261_Y261C] | 1.01
44 | TFLRTYTDTMQ [TSPAN7_Y124_A127T] | 0.464
45 | SKKSTYRALLD [GANC_Y43_Q44R] | 0.432
46 | QLHREYCLSPR [HJURP_Y445] | 0.92
47 | TLNVRYESVQA [CEACAM7_Y236] | 0.434
48 | SNKLHYQLEQE [PDPR_Y110_Y109H] | 0.519
49 | GREAEYSEKHG [EPHB4_Y574_D576E] | 0.354
50 | AEPTGYSAELS [EZR_Y499] | 0.524

Row | Sequence | phosphorylation enrichment
51 | VHSGTYQVTVR [MYBPC3_Y1043] | 0.448
52 | PYAEPYADYGG [APBA1_Y187_S184A] | 1.33
53 | ARTNEYKIIRS [INA_Y87_T92S] | 0.406
54 | FFHCTYKQRMI [CLEC12A_Y242_K244Q_YF] | 0.493
55 | HVIKFYGACSQ [RET_Y791_L790F] | 0.759
56 | ANNPLYKEATS [ITGB3_Y773] | 0.343
57 | KLKNAYEESLE [MYH7_Y1488] | 0.429
58 | EFENSYIFDIN [GAB1_Y83] | 0.519
59 | LQIPMYEVQWK [KIT_Y553_K550I] | 2.45
60 | PELINYHQHYS [BTK_Y361_N365Y] | 0.662
61 | WQQQSYLASGI [CTNNB1_Y30_D32A] | 0.487
62 | CKLCQYYLDHL [ATRX_Y1849_Y1847C] | 0.515
63 | HKLSYCEYDFE [BTK_Y40_Y40C] | 1.68
64 | NELTYYCYKKD [CD59_Y87_C89Y] | 3.84
65 | PVGDVYKKKGL [NMNAT1_Y55_A54V] | 0.465
66 | DAANNYARGHF [TUBA3E_Y103_S101N_YF] | 0.425
